Source: paper PMC3996484, “Apoptosis Therapy in Cancer: The First Single-molecule Co-activating p53 and the Translocator Protein in Glioblastoma” (Scientific Reports, 2014)

Target: T1, recombinant human His-tagged p53 protein (residues 1-312) (human, UniProt P04637 1-312)
T1 construct: p53 tumor suppressor, human, residues 1-312; source: final buffer with 0.2 mM ZnCl2
Assay: NMR titration; AIDA, 1D proton NMR of tryptophan side chain NH-epsilon signals of p53 alone and of the MDM2/p53 complex; 0.1 mM proteins, 20 mM TrisHCl, 150 mM KCl, pH 7.4, 5 mM beta-mercaptoethanol, 0.02% NaN3, 25°C, 700 MHz
Conditions: both partners purified

T1 sequence (P04637 1-312): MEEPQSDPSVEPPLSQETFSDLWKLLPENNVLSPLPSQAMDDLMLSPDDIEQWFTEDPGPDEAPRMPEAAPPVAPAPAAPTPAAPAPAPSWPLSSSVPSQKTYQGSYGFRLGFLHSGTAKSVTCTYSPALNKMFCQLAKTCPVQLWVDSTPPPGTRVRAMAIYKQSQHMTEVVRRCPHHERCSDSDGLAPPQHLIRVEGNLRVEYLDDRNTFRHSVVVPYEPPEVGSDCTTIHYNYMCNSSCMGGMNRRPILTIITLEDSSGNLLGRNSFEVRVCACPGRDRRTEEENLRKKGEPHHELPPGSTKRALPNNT

binding result: binds
B1: recombinant human His-tagged N-terminal region of MDM2 (residues 1-118) (domain or fragment, UniProt Q00987 1-118, looked up)
chain: MCNTNMSVPTDGAVTTSQIPASEQETLVRPKPLLLKLLKSVGAQKDTYTMKEVLFYLGQYIMTKRLYDEKQQHIVYCSNDLLGDLFGVPSFSVKEHRKIYTMIYRNLVVVNQQESSDS
notes: MDM2 (murine double minute 2), human, N-terminal region, residues 1-118; Cloned in a derivative of the vector pET-46Ek/LIC (Novagen); also called murine double minute 2
